Reference: patent publication US20240239875A1 (published 2024)

T1: MERS spike protein (MERS-CoV, UniProt K9N5Q8 18-1296)
T1 chain: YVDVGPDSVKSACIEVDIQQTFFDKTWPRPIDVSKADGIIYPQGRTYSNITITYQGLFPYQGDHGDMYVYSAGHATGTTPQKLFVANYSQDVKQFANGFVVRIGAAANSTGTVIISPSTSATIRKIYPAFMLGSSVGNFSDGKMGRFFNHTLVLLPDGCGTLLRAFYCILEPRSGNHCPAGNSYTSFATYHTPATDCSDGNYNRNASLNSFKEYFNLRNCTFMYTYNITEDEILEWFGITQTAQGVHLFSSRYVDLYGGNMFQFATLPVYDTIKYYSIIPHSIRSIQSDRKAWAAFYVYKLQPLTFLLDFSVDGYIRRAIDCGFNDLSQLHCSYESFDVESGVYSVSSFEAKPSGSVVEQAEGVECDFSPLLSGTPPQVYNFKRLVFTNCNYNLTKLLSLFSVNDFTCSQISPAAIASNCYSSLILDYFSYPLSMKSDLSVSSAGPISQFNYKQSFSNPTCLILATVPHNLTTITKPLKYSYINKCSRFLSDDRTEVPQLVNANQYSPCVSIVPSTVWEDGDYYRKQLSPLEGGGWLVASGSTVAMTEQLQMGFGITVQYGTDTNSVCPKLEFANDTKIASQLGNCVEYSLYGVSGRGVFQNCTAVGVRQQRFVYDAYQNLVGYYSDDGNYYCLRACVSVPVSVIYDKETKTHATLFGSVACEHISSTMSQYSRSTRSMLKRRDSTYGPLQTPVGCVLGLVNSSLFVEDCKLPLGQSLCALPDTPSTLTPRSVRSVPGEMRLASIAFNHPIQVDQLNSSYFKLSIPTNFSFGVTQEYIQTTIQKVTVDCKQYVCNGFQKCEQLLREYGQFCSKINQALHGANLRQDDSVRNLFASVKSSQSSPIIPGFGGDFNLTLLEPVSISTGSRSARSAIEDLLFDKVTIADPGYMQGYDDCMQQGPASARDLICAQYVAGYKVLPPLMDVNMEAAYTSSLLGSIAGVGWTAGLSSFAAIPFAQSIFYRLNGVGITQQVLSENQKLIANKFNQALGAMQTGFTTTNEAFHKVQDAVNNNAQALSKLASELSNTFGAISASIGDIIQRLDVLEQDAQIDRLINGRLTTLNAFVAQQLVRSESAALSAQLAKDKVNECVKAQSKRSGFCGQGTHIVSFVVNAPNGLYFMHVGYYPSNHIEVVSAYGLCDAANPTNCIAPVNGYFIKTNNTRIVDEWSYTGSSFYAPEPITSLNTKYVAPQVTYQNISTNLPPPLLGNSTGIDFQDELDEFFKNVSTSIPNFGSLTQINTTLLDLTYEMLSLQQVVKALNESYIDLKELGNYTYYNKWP

T2: HCoV229E spike protein (HCoV-229E, UniProt P15423 17-1103)
T2 chain: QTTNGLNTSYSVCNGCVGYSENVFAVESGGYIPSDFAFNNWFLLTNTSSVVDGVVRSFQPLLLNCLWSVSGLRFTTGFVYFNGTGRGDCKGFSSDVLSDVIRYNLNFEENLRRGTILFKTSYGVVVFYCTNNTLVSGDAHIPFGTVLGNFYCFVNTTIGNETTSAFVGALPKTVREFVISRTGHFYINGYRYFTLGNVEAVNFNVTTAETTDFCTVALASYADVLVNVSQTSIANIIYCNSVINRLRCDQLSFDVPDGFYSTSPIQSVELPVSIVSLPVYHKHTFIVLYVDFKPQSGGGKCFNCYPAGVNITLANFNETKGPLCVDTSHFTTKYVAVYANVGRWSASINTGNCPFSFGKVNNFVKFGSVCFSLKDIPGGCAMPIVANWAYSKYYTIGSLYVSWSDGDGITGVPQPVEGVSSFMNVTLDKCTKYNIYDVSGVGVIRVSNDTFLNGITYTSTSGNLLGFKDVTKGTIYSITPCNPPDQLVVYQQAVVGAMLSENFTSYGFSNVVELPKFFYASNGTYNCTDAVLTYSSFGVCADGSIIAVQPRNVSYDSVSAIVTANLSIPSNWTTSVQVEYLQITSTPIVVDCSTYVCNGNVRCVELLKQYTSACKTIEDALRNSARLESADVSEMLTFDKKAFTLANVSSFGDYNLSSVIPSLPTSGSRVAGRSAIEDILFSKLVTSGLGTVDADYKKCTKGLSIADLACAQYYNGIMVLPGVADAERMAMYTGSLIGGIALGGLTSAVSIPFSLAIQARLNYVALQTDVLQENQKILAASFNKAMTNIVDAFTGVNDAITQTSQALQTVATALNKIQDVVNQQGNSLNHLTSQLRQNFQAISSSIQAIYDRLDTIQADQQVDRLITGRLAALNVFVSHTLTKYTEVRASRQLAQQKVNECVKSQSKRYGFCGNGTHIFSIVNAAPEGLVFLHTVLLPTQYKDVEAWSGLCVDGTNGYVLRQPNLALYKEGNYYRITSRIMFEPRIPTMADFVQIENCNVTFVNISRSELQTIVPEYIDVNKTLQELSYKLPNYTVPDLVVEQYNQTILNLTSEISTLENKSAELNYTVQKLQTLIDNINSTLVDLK

B1: 1-L10-A (antibody, V domains shown)
VH: EVKLEESGGGLVQPGGSMKLSCVASGFTFNNYWMNWVRQSPEKGLEWVAQMRLKSDNYATHYAESVKGRFTISRDDSKSSVYLQMNNLRAEDTGIYYCIEGYWTYWGQGTLVTVSA
VL: QIVLTQSPAIMSASLGERVTMTCTASSSVSSSYLHWYQQKPGSSPKLWIYSTSNLASGVPARFSGNGSGTSYSLTISSMEAEDAATYYCLQYHRSPPYTFGGGTKLEIK
B2: 7-D7-A (antibody, V domains shown)
VH: QVQLKESGPGLVAPSQSLSITCTVSGFSLTSYAISWVRQPPGKGLEWLGVIWPGGGTNYNSALKSRLSISKDNSKSQVFLKMNSLQTDDTAKYYCARTGYYFDYWGQGTTLTVSS
VL: QLILTQSPAIMSASPGEKVTMTCSASLSVNYMYWFQQKPGTSPKRWIHDTSKLASGVPARFSGSGSGTSYSLTISSMEAEDAATYYCQQWSSNPPMYTFGGGTKLEIK
B3: 8-A17-A (antibody, V domains shown)
VH: QVQLKESGPGLVAPSQSLSITCTVSGFSLTSYAISWVRQPPGKGLEWLGVVWPGGGTNYNSALKSRLSINKDNSKSQVFLKMNSLQTDDTGRYYCARTGYHFDYWGQGTTLTVSS
VL: QIVLTQSPAIMSASPGEKVTMTCSVSSSVSYMHWYQQKSGTSPKRWIYDTSKLASGVPARFSGSGSGTSYSLTISSMEAEDAATYYCQQWSSNPPMYTFGGGTKLEIK
B4: 2-G20-A (antibody, V domains shown)
VH: EVQLQQSGPELVKPGASVKMSCKASGYTFPSYVLHWVKQKPGQGLEWIGYIYPYNDGTNYNEKFKGKATLTSDKSSSTAYMELSSLTSEDSAVYYCARGDYGDSAWFPYWGQGTLVTVSA
VL: DIVLTQSPASLAVSLGQRATISCRASKSVSTSGYSYMHWYQQKPGQPPKLLIYLASNLKSGVPARFSGGGSGTDFTLNIHPVEEEDAATYYCQLSRELPWTFGGGTKLEIK
B5: 9-F6-A (antibody, V domains shown)
VH: EVQLQQSGPELVKPGASVKMSCKASGYTFTSYIMHWVKQKPGQGLEWIGYILPYNDGTKYNEKFKGKATLTSDKSSSTAYMELRSLTSEDSAVYYCARWGYSNFLDSWGQGTTLTVSS
VL: DIQMTQTTSSLSASLGDRVTISCRASQDINNYLNWYQQKPDGTVKLLIYYTSRLHSGVPSRFSGSGSGTDYSLTIRNLEQEDIATYFCQQGNTLPPTFGGGTKLEIK
B6: 1-B11-A (antibody, V domains shown)
VH: QVQLQQSGPELVKPGASVKISCKASGYTFTDHYINWVKQRPGQGLEWIGWIFPGSGSTYYNEQFKGKATLTVDKSSNTAYMLLSSLTSEDSAVYFCARSGGLRLGFAYWGQGTLVTVSA
VL: DIQMTQTTSSLSASLGDRVTISCRASQDISNYLNWYQQKPDGTVKLLIYYTSRLHSGVPSRFSGSGSGTDYSLTISNLEQEDISTYFCQQVNTLPYTFGGGTKLEIK
B7: 6-O12-A (antibody, V domains shown)
VH: QVQLQQPGTELVKPGASVKLSCKASGYTFTSYWMHWVKQRPGQGLEWIGNINPSNGGTNYNEKFRSKATLTVDKSSSTAYMQLSSLTSEDSAVYYCARLGWFLPLGSWGQGTTLTVSS
VL: QIVLTQSPAIMSASLGEVITLTCSASSSVSYMHWYQQKSGTSPKLLIYSTSNLASGVPSRFSGSGSGTFYSLTISSVEAEDAADYYCHQWSGYMYTFGGGTKLEIK

Columns and labels:
Assay in all cases: ELISA
SARS-CoV-1 spike protein = SARS-CoV-1 spike protein (SARS-CoV-1, UniProt P59594 14-1195)
[1] = molecular target: SARS-CoV-2 prefusion stabilized trimer protein (WIV02 isolate spike protein) (UniProt P0DTC2 14-1213)
MERS spike protein = molecular target: T1, MERS spike protein
HCoV229E spike protein = molecular target: T2, HCoV229E spike protein

| Binder | EC50 (SARS-CoV-1 spike protein) [nM] | EC50 [1] [nM] | EC50 (MERS spike protein) [nM] | EC50 (HCoV229E spike protein) [nM] |
| --- | --- | --- | --- | --- |
| B1 | 5.27 | 111 | 3.47 | 0.12 |
| B2 | 3.05 | 0.72 | 0.9 | 0.13 |
| B3 | 0.36 | 0.27 | 0.49 | 0.01 |
| B4 | 1.44 | 1.83 | 8.71 | 0.1 |
| B5 | 0.46 | 0.59 | 1.67 | 0.03 |
| B6 | 0.55 | 10.7 | 0.63 | – |
| B7 | 0.24 | 0.39 | 0.25 | 0.15 |
